Source: patent publication US20230227833

Tested on: Reverse transcriptase (RT)
Assay: inhibition
Details: RNA strand 3' phosphate; DNA strand 3' dideoxy; 37 C; activity fully released at 55 C

## TCGAACGGGACGGCTGGCTGTGTGTGT / CCAGCCGTCC [analogs 6+7 (RNA/DNA)]
  activity (% residual activity): 16
